In the nanobody polyreactivity screen of Harvey et al. (2022):

Experiment: yeast display, Sf9 membrane polyspecificity reagent, FACS + sequencing; frameworks hold sequencing errors
Method in brief: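 Nanobodies from a synthetic yeast display library (Saccharomyces cerevisiae BJ5465), induced 36–48 hours with galactose, were stained 1 hour at 4 °C with 10% biotinylated, detergent-solubilized Sf9 membrane reagent, enriched on streptavidin microbeads, then FACS-sorted. Anti-HA (expression) and streptavidin (reagent binding) fluorescence set low and high (top ~1%) gates. Polyreactivity labels come from the gate of origin. Genes were colony-PCR amplified, MiSeq 2 × 250 sequenced and filtered by CDR length.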

Sequence	polyreactivity (PSR sort gate)
QVQLVESGGGLVQAGGSLRLSCAASGIIFYEYVMGWYRQAPGKERELVATISSIGGSTYYADSVKGRFTISRDNAKNTVYLQMNSLKPEDTAVYYCAADPDPVVSRGGNWYGDDYWGQGTQVTVSS	high polyreactivity
QVQLVESGGGLVQAGGSLRLSCAASGIIFYGNVMGWYRQAPGKERELVAAITSTGSTSYADSVKGRFTMSRDNGKNTVYLQMNSLKPEDTAVYYCAADNAVWEYDYWGQGTQVTVSS	low polyreactivity
QVQLVESGGGLVQAGGSLRLSCAASGIIFYGYAMGWYRQAPGKERELVAGISSGGSTYYADSVKGRFTISRDNAKNTVYLQMNSLKPVDTAVSYCNADGGYSYESTDHYGYDYWGQGTQVTVSS	low polyreactivity
QVQLVESGGGLVQAGGSLRLSCAASGIIFYGYVMGWYRQAPGKERELVATSTSSGGSTYYADSVKGRFTISRDNAKNTGYLQMNSLKPEDTAVYYCAADYDYGAWVRHDYWGQGTQVTVSS	low polyreactivity
QVQLVESGGGLVQAGGSLRLSCAASGIIFYKNAMGWYRQAPGKDRELVAAISGSGGRTYYADSVTGRFTISRDNGKNTVYFQMNSLKPEDTAVYYCAARQPYRHGYESWGQGSQVTVSS	high polyreactivity
QVQLVESGGGLVQAGGSLRLSCAASGIIFYLYAMGWYRQAPGKERELVAAISRRGGSTYYADSVKGRFTISRDKAKNTVYLQMNSLKPEDTAVYYCAATIGTFGYGYWGQGTQVTVSS	high polyreactivity
QVQLVESGGGLVQAGGSLRLSCAASGIIFYPNAMGWYRQAPGKERELVAAITSDGSTYYADSVKGRFTISRDNAMNTVYLQMNSLKPDDTAVYYCAAWDDYGYDYWGQGTQVTVSS	low polyreactivity
QVQLVESGGGLVQAGGSLRLSCAASGIIFYRNAMGWYRQAPGKERELVAAISSSGGRTYYADSVKGRFTISRDNAKNTVYLQMNSLKPEDTAVYYCAADYQWFWVWYGYWGQGTQVTVSS	high polyreactivity
QVQLVESGGGLVQAGGSLRLSCAASGIIFYRNTMGWYRQAPGKERELVASISRGGSTYYADSVKGRFTISRDNAKNTVYLPMNTLKPEDTAVYYCSTSGPQDYSRNFDYWGQGTQVTVSS	low polyreactivity
QVQLVESGGGLVQAGGSLRLSCAASGIIFYRYAMGWYRQAPGKERELVAAISSSGTNTYYADSVKGRFTISRDNAKNTVYLQMNSLKPEDTAVYYCNSDTWADRSTYDYWGQGTQVTVSS	low polyreactivity
QVQLVESGGGLVQAGGSLRLSCAASGIIFYRYAMGWYRQAPGKERELVARITSSTGSTYYADSVKGRFTISRDNAKNTVYLQMNSLKPEDTAVYYCNARRQRNKSYNYWGQGTQVTVSS	high polyreactivity
QVQLVESGGGLVQAGGSLRLSCAASGIIFYVNDMGWYREAPGKVRELVADISGGTSTNYADSVKGRFTISRDNAKNTVYLQMNSLKPEDTAVYYCATAFIVPFPGSDYWGQGTQVTVSS	low polyreactivity
QVQLVESGGGLVQAGGSLRLSCAASGIIFYWYAMGWYRQAPGKERELVAAITRVGSTNYADSVKGRFTISRDNAKNTVYLQMNSLKPEDTAVYYCAADLWQRHYLVGFGIRYDYWGQGTQVTVSS	low polyreactivity
QVQLVESGGGLVQAGGSLRLSCAASGIIFYYNAMGWYRQAPGKERELVAAISSSGGSTSYADSVKGRFTISRDNAKNTVFLQMNSLKPEDTAVYYCAADSYPAYLGFVGFDYWGQGTQVTVSS	low polyreactivity
QVQLVESGGGLVQAGGSLRLSCAASGIIFYYYAMGWYRQAPGKERELVAAISTSGGRTYYADSVKGRFTISRDNAKNTVYLQMNSLKPEDTAVYYCAKDFWYVTGGWSSGMDYWGQGTQVTVSS	low polyreactivity
QVQLVESGGGLVQAGGSLRLSCAASGIIFYYYAMGWYRQAPGKERELVAAISWSGGSTYYADSVKGRFTISRDNAKNTVYLQMNSLKPEDTAVYYCAASSTSGYDWGQGTQVTVSS	low polyreactivity
QVQLVESGGGLVQAGGSLRLSCAASGIIFYYYDMGWYRQAPGKERELVAAISWGAGDTYYADSVKGRFTISRDNAKNTVYLQMNSLKPEDTAVYYCAAEFSRSDYQEYDYWGQGTQVTVSS	low polyreactivity
